Test results from US6623738 (University of California, dated 2003).
Values belong to the binder of their own block, whether it stands above or below them.

Columns and labels:
[1] = target: T1, AP fusion with the ectodomain of Sema VIa (UniProt O35464 19-649); experiment: AP fusion binding to transfected COS cells
T1 construct: extracellular domain; also called Sema VIa ectodomain; not shown: alkaline phosphatase (AP) reporter
T1 sequence (looked up): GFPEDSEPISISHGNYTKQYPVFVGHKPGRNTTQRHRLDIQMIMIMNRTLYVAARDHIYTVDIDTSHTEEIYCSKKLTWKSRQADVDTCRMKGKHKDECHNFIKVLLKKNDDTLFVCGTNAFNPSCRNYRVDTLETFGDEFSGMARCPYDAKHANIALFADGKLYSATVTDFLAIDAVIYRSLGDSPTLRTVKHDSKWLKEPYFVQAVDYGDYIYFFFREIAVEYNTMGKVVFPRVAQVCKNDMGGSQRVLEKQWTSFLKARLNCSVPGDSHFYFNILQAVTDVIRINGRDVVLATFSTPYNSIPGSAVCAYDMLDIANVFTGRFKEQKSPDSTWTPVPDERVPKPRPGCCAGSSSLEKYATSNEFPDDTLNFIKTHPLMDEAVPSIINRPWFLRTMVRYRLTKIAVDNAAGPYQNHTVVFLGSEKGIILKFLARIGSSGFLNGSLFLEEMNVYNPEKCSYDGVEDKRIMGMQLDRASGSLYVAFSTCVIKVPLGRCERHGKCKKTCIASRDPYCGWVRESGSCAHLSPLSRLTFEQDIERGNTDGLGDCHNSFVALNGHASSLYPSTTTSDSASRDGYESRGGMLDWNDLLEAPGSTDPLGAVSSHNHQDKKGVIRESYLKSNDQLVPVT

[2] = target: T2, AP fusion with Drosophila D-Sema II (Drosophila, UniProt Q24323 26-724); experiment: AP fusion binding to transfected COS cells
T2 construct: also called Drosophila Sema II; not shown: alkaline phosphatase (AP) reporter
T2 sequence (looked up): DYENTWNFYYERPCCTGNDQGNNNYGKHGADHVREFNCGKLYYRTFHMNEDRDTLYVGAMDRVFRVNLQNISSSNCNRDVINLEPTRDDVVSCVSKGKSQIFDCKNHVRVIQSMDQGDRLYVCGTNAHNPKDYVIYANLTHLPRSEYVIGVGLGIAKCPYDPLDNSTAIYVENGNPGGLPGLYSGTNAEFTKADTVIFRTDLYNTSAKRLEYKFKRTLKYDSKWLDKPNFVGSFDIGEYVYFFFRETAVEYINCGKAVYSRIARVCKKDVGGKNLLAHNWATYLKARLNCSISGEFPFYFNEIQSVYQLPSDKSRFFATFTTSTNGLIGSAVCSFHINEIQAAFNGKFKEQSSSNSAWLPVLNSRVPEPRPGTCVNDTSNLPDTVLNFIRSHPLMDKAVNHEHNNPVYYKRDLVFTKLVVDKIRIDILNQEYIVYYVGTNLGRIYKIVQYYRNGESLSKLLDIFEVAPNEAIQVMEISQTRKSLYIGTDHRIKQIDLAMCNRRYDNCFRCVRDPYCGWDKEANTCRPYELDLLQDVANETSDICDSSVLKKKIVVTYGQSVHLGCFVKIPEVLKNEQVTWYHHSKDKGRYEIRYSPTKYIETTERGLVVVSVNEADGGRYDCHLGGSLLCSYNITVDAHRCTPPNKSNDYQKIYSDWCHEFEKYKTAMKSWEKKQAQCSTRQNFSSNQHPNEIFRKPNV

[3] = target: T3, Sema E-AP fusion protein (mouse Sema E fused to alkaline phosphatase) (mouse, UniProt Q62181 21-751); experiment: AP fusion binding to transfected COS cells
T3 construct: written as in the name; Partially purified conditioned medium; not shown: secreted alkaline phosphatase of vector APtag-4
T3 sequence (looked up): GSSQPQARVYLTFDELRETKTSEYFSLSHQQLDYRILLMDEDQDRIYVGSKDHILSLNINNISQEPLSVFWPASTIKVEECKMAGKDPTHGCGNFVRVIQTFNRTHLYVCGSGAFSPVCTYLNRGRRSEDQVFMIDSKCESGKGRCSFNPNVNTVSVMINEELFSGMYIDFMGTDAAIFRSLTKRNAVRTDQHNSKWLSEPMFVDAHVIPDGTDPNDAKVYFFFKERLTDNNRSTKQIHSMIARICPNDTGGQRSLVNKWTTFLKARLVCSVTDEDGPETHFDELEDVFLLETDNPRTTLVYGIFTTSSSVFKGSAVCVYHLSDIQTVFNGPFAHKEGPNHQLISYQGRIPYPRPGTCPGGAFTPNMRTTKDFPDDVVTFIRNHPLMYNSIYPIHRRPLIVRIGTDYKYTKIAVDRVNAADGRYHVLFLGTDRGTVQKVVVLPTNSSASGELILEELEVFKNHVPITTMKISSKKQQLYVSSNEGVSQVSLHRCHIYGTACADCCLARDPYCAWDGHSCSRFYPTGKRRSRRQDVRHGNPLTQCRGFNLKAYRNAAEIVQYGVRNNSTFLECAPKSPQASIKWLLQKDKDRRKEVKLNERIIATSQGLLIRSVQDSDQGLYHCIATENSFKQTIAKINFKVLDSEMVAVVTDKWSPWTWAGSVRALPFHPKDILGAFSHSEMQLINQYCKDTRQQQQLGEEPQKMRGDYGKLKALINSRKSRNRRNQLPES

[4] = target: T4, alkaline phosphatase (AP) alone (UniProt P05187 23-511); experiment: AP histochemistry on transfected COS cells
T4 construct: Control protein; also called alkaline phosphatase protein
T4 sequence (P05187 23-511 limits assumed): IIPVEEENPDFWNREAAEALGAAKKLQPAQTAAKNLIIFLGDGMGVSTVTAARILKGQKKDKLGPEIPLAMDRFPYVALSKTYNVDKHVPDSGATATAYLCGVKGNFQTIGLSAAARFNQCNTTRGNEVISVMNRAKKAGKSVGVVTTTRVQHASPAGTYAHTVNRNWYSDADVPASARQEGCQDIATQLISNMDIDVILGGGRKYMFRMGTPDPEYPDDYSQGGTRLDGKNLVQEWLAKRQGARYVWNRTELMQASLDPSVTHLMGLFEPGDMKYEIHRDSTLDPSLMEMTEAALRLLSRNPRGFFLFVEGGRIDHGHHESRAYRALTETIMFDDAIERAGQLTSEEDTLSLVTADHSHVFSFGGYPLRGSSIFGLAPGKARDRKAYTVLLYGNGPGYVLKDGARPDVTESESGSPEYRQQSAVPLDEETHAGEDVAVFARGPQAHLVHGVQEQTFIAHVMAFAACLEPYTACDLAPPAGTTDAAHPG

[5] = target: SemaIII-AP fusion protein (full-length Sema III fused at its carboxy terminus to alkaline phosphatase); experiment: equilibrium binding of AP fusion to neuropilin-1-expressing cells, Hill fit

- binding result [1]: no binding
- binding result [2]: no binding
- binding result [3]: binds
- binding result [4]: no binding
B1: mouse neuropilin-2(b5), myc-tagged, expressed in COS-7 cells (receptor, not shown: small tags and cut ends)
chain: RSQQDPPCGGRPNSKDAGYITSPGYPQDYPSHQNCEWIVYAPEPNQKIVLNFNPHFEIEKHDCKYDFIEIRDGDSESADLLGKHCGNIAPPTIISSGSVLYIKFTSDYARQGAGFSLRYEIFKTGSEDCSKNFTSPNGTIESPGFPEKYPHNLDCTFTILAKPRMEIILQFLTFDLEHDPLQVGEGDCKYDWLDIWDGIPHVGPLIGKYCGTKTPSKLRSSTGILSLTFHTDMAVAKDGFSARYYLIHQEPPENFQCNVPLGMESGRIANEQISASSTFSDGRWTPQQSRLHGDDNGWTPNLDSNKEYLQVDLRFLTMLTAIATQGAISRETQKGYYVKSYKLEVSTNGEDWMVYRHGKNHKIFQANNDATEVVLNKLHMPLLTRFIRIRPQTWHLGIALRLELFGCRVTDAPCSNMLGMLSGLIADTQISASSTREYLWSPSAARLVSSRSGWFPRNPQAQPGEEWLQVDLGTPKTVKGVIIQGARGGDSITAVEARAFVRKFKVSYSLNGKDWEYIQDPRTQQTKLFEGNMHYDTPDIRRFDPVPAQYVRVYPERWSPAGIGMRLEVLGCDWTDSKPTVETLGPTVKSEETTTPYPMDEDATECGENCSFEDDKDLQLPSGFNCNFDFPEETCGWVYDHAKWLRSTWISSANPNDRTFPDDKNFLKLQSDGRREGQYGRLISPPVHLPRSPVCMEFQYQAMGGHGVALQVVREASQESKLLWVIREDQGSEWKHGRIILPSYDMEYQIVFEGVIGKGRSGEISIDDIRISTDVPLENCMEPISAFAGEDFKGGTLPPGTEPTVDTVPVQPIPAYWYYVMAAGGAVLVLASVVLALVLHYHRFRYAAKKTDHSITYKTSHYTNGAPLAVEPTLTIKLEQERGSHC
notes: also called b5 isoform of neuropilin-2; SR2(b)5

- Kd [5]: 0.325 nM
B2: neuropilin-1 transiently expressed in COS-7 cells (receptor)
chain: FRSDKCGGTIKIENPGYLTSPGYPHSYHPSEKCEWLIQAPEPYQRIMINFNPHFDLEDRDCKYDYVEVIDGENEGGRLWGKFCGKIAPSPVVSSGPFLFIKFVSDYETHGAGFSIRYEIFKRGPECSQNYTAPTGVIKSPGFPEKYPNSLECTYIIFAPKMSEIILEFESFDLEQDSNPPGGVFCRYDRLEIWDGFPEVGPHIGRYCGQKTPGRIRSSSGILSMVFYTDSAIAKEGFSANYSVLQSSISEDFKCMEALGMESGEIHSDQITASSQYGTNWSVERSRLNYPENGWTPGEDSYREWIQVDLGLLRFVTAVGTQGAISKETKKKYYVKTYRVDISSNGEDWITLKEGNKAIIFQGNTNPTDVVFGVFPKPLITRFVRIKPASWETGISMRFEVYGCKITDYPCSGMLGMVSGLISDSQITASNQGDRNWMPENIRLVTSRTGWALPPSPHPYINEWLQVDLGDEKIVRGVIIQGGKHRENKVFMRKFKIAYSNNGSDWKMIMDDSKRKAKSFEGNNNYDTPELRAFTPLSTRFIRIYPERATHSGLGLRMELLGCEVEVPTAGPTTPNGNPVDECDDDQANCHSGTGDDFQLTGGTTVLATEKPTIIDSTIQSEFPTYGFNCEFGWGSHKTFCHWEHDSHAQLRWRVLTSKTGPIQDHTGDGNFIYSQADENQKGKVARLVSPVVYSQSSAHCMTFWYHMSGSHVGTLRVKLHYQKPEEYDQLVWMVVGHQGDHWKEGRVLLHKSLKLYQVIFEGEIGKGNLGGIAVDDISINNHIPQEDCAKPTDLDKKNTEIKIDETGSTPGYEEGKGDKNISRKPGNVLKTLDPILITIIAMSALGVLLGAVCGVVLYCACWHNGMSERNLSALENYNFELVDGVKLKKDKLNPQSNYSEA
notes: also called npn-1; SR1
